Consider seven molecules from patent publication US7884199B2, “HCV NS3-NS4 protease resistance mutants” (priority 2003, dated 2011).

Series [1] concerns wild-type HCV Con1 sub-genomic replicon cells. In words: HCV replicon cell assay, 48-hour. Conditions: 48-hour assay. In kind it is cell-based, Hepatitis C virus. As for the experimental part:
(§1) Cells containing hepatitis C virus (HCV) replicon were maintained in DMEM containing 10% fetal bovine serum (FBS), 0.25 mg per ml of G418, with appropriate supplements (media A).
(§2) On day 1, replicon cell monolayer was treated with a trypsin:EDTA mixture, removed, and then media A was diluted into a final concentration of 100,000 cells per ml with. 10,000 cells in 100 ul were plated into each well of a 96-well tissue culture plate, and cultured overnight in a tissue culture incubator at 37° C.
On day 2, compounds (in 100% DMSO) were serially diluted into DMEM containing 2% FBS, 0.5% DMSO, with appropriate supplements (media B). […]
(§3) A Taqman real-time RT-PCR quantification assay was set up with two sets of specific primers and probe. […] Total RNA extractants from treated HCV replicon cells was added to the PCR reactions for quantification of both HCV and BVDV RNA in the same PCR well. […] The level of HCV RNA in each well was calculated according to a standard curve run in the same PCR plate. The percentage of inhibition or decrease of HCV RNA level due to compound treatment was calculated using the DMSO or no compound control as 0% of inhibition. The cytotoxicity of the compounds was measured using a mitochondrial enzyme-based cell viability assay, CellTiter 96 AQueous One Solution Cell Proliferation Assay (Promega).
In general terms: Replicon systems follow genome replication, usually without infectious particles.

Another series deals with A156V HCV replicon cells. In words: HCV replicon cell assay, 48-hour. In kind it is cell-based, Hepatitis C virus.
Excerpt: (§4) During the course of generating of the HCV sub-genomic replicon stable cell lines, several different patterns of adaptive mutations were identified. One pattern has three substitutions in the HCV nonstructural proteins, which were introduced into the original pBR322-HCV-Neo plasmid by site-directed mutagenesis to generate the second-generation sub-genomic replicon plasmid, pBR322-HCV-Neo-mADE. When the T7 run-offRNA transcripts from the Sca I-linearized pBR322-HCV-Neo-mADE plasmid were electroporated into Huh7 cells, stable replicon cell colonies were formed at a much higher efficiency than the original Con1 replicon RNA. The resistance mutations identified in this study were introduced into the pBR322-HCV-Neo-mADE replicon plasmid by site-directed mutagenesis. Stable replicon cell lines were generated using the T7 transcripts derived from either wild type pBR322-HCV-Neo-mADE or the ones with the resistance mutations.
as §1, §2
(§5) On day 2, compounds (in 100% DMSO) were serially diluted into DMEM containing 2% FBS, 0.5% DMSO, with appropriate supplements (media B). The final concentration of DMSO was maintained at 0.5% throughout the dilution series.
(§6) Media on the replicon cell monolayer was removed, and then media B containing various concentrations of compounds was added. Media B without any compound was added to other wells as no compound controls.
(§7) Cells were incubated with compound or 0.5% DMSO in media B for 48 hours in a tissue culture incubator at 37° C. At the end of the 48-hour incubation, the media was removed, and the replicon cell monolayer was washed once with PBS and stored at −80° C. prior to RNA extraction.
(§8) Culture plates with treated replicon cell monolayers were thawed, and a fixed amount of another RNA virus, such as Bovine Viral Diarrhea Virus (BVDV) was added to cells in each well. RNA extraction reagents (such as reagents from RNeasy kits) were added to the cells immediately to avoid degradation of RNA. Total RNA was extracted according the instruction of manufacturer with modification to improve extraction efficiency and consistency. Finally, total cellular RNA, including HCV replicon RNA, was eluted and stored at −80° C. until further processing.
(§9) A Taqman real-time RT-PCR quantification assay was set up with two sets of specific primers and probe. One was for HCV and the other was for BVDV. Total RNA extractants from treated HCV replicon cells was added to the PCR reactions for quantification of both HCV and BVDV RNA in the same PCR well. Experimental failure was flagged and rejected based on the level of BVDV RNA in each well. The level of HCV RNA in each well was calculated according to a standard curve run in the same PCR plate. The percentage of inhibition or decrease of HCV RNA level due to compound treatment was calculated using the DMSO or no compound control as 0% of inhibition. The cytotoxicity of the compounds was measured using a mitochondrial enzyme-based cell viability assay, CellTiter 96 AQueous One Solution Cell Proliferation Assay (Promega).
(§10) Table 6 summary: Three HCV sub-genomic replicon stable cell lines, including the wild-type, and two mutants, A156T and A156V, were generated using the T7 RNA runoff transcripts from the corresponding high efficiency Con 1 replicon plasmids.

The next series concerns A156T HCV replicon cells. The series is described as follows: HCV replicon cell assay, 48-hour. The series is classed as cell-based, Hepatitis C virus. Conditions: 48-hour assay.
Excerpt: as §4, §1, §2, §5, §6, §7, §8, §9, §10

In the next series the test system is D168A HCV replicon cells. In words: HCV replicon cell assay, 48-hour. In kind it is cell-based, Hepatitis C virus. The settings on record: 48-hour assay.
Excerpt: as §4, §1, §2, §5, §6, §7, §8, §9
(§11) Four HCV sub-genomic replicon stable cell lines, including the wild type (wt), and three mutants, A156S, D168V and D168A, were generated using the T7 RNA runoff transcripts from the corresponding high efficiency Con1 replicon plasmids.

The next series deals with A156S HCV replicon cells. In words: HCV replicon cell assay, 48-hour. The series is classed as cell-based, Hepatitis C virus. The settings on record: read-out: IC50.
Excerpt: as §4, §1, §2, §5, §6, §7, §8, §9, §11

Another series concerns D168V HCV replicon cells. In words: HCV replicon cell assay, 48-hour. Conditions: D168V replicon cells, 48-hour assay; read-out: Replicon IC50. The series is classed as cell-based, Hepatitis C virus.
Excerpt: as §4, §1, §2, §5, §6, §7, §8, §9, §11

Series [2] deals with wild type HCV replicon cells (high efficiency Con1 replicon). In words: HCV replicon cell assay, 48-hour. In kind it is cell-based, Hepatitis C virus. The settings on record: read-out: IC50.
Excerpt: as §4, §1
On day 1, replicon cell monolayer was treated with a trypsin:EDTA mixture, removed, and then media A was diluted into a final concentration of 100,000 cells per ml with. […]
as §3, with “(Promega). […]” for “(Promega).”

In series [3] the test system is series A (VX-950-resistant) replicon cells. In words: HCV replicon cell assay, 48-hour. In kind it is cell-based, Hepatitis C virus. Conditions: series A (VX-950-resistant) replicon cells.
Series [4] deals with series C (double-resistant) replicon cells. The series is described as follows: HCV replicon cell assay, 48-hour. The series is classed as cell-based, Hepatitis C virus. The settings on record: series C replicon cells at day 52.
Method: Culture plates with treated replicon cell monolayers were thawed, and a fixed amount of another RNA virus, such as Bovine Viral Diarrhea Virus (BVDV) was added to cells in each well. […]
A Taqman real-time RT-PCR quantification assay was set up with two sets of specific primers and probe. […] Total RNA extractants from treated HCV replicon cells was added to the PCR reactions for quantification of both HCV and BVDV RNA in the same PCR well. […] The level of HCV RNA in each well was calculated according to a standard curve run in the same PCR plate. The percentage of inhibition or decrease of HCV RNA level due to compound treatment was calculated using the DMSO or no compound control as 0% of inhibition. The cytotoxicity of the compounds was measured using a mitochondrial enzyme-based cell viability assay, CellTiter 96 AQueous One Solution Cell Proliferation Assay (Promega). […]
A short description of series [5]: Substrate kinetic parameters of NS3 serine protease domains with KK-NS4A peptide and FRET substrate. The series is classed as biochemical, Hepatitis C virus. As for the experimental part: Enzymatic activity was determined using a modification of the assay described by Taliani et al., [Taliani et al., Anal. Biochem., 240, pp. 60-67 (1996)]. An internally quenched fluorogenic peptide (FRET substrate), Ac-DED(EDANS)EEαAbuψ[COO]ASK (DABCYL)-NH2, was purchased from AnaSpec Incorporated (San Jose, Calif.). The assay was run in a continuous mode in a 96-well microtiter plate format. The buffer was composed of 50 mM HEPES (pH 7.8), 100 mM NaCl, 20% glycerol, 5 mM DTT, and 25 μM KK4A peptide ([…]; SEQ ID NO:5). The KK4A peptide represents the central region of the NS4A cofactor from genotype 1a with lysine residues added for improved solubility [Landro et al. Biochemistry, 36, pp. 9340-9348 (1997)]. The reaction was initiated by the addition of the FRET substrate after a 10-min pre-incubation of the buffer components with 2 nM of the NS3 protease at room temperature. The reaction was monitored at 30° C. for 20 min using a Molecular Devices fmax fluorometric plate reader. The filters for excitation and emission wavelengths were 355 nm and 495 nm, respectively. For determination of substrate kinetic parameters, concentrations of the FRET peptide were varied from 0.5-7.0 μM. Inter-molecular quenching was not observed in this range. The substrate kinetic parameters, Km and Vmax, were determined by fitting the data to the Michaelis-Menten equation. […] This mixture was incubated for an additional 15 min at room temperature prior to an incubation with the FRET substrate for another 20 min at 30° C. Seven to eight concentrations of compound were assayed, and the resulting data were fitted to the integrated form of Morrison's equation for tight binding inhibition [J. F. Morrison, Biochim. Biophys. Acta, 185 pp. 269-286 (1969)]. All substrate and inhibitor data were fitted using Marquardt-Levenberg nonlinear regression with GraphPad Prism software.
Five HCV NS3 serine protease domain proteins, including the genotype 1a and 1b wild-type (wt) proteases, and three mutants (A156S, D168V, and D168A) of the genotype 1b, were expressed and purified as described in Materials and Methods. The kcat and Km values of these NS3 proteases were determined using the KK-NS4A core peptide and the FRET substrate.
Table 4 summary: Three HCV NS3 serine protease domain proteins of the Con1 strain, including the wild-type proteases and two mutants, A156T and A156V, were expressed and purified. The kcat and Km values of these NS3 proteases were determined using the KK-NS4A core peptide and the FRET substrate, and the average of two independent assays was shown.

The mark [6] stands for this setting: Table 1, FRET substrate, KK-NS4A core peptide.
The mark [7] stands for this setting: Table 4, Con1 strain, average of two independent assays.

Several values for one entry are separate records, joined by “and”; a condition that tells them apart may be missing. Identical values can stand only once.

In the case of BILN 2061 [reference compound], the 50% inhibitory concentration (IC50) was 0.001 µM in [1]; 5.76 µM in the series with A156V HCV replicon cells (48-hour assay); 1.09 µM in the series with A156T HCV replicon cells; 1.86 µM with D168A HCV replicon cells; 0.007 µM in the series with A156S HCV replicon cells; 5.09 µM and 4.65 µM in the series with D168V HCV replicon cells. Besides, the concentration for half-maximal inhibition (IC50) in [2] is 0.004 µM; in series [3] it was roughly 0.01 µM; in series [4], roughly 3 µM. Moreover, the “decrease in sensitivity conferred by the mutation” value in the series with A156V HCV replicon cells was “more than 1.400 fold”. In series [4], the “IC50 higher than against the series A replicon cells” value stood at 300 fold.

B1: D168A (1b) (protein)
chain: APITAYSQQTRGLLGCIITSLTGRDRNQVEGEVQVVSTATQSFLATCVNGVCWTVYHGAGSKTLAGPKGPITQMYTNVDQDLVGWQAPPGARSLTPCTCGSSDLYLVTRHADVIPVRRRGDSRGSLLSPRPVSYLKGSSGGPLLCPSGHAVGIFRAAVCTRGVAKAVAFVPVESMETTMRSHHHHHH
Turning to B1, the “change of substrate kinetic parameters (kcat, kcat/Km) compared with wild type” value in [5] (FRET substrate) is recorded as “less than 10 fold”. In addition, in [5] (setting [6]), the Kcat was found to be 0.3 s⁻¹ and the Km is 2 µM.

B2: A156T (protein)
chain: APITAYSQQTRGLLGCIITSLTGRDRNQVEGEVQVVSTATQSFLATCVNGVCWTVYHGAGSKTLAGPKGPITQMYTNVDQDLVGWQAPPGARSLTPCTCGSSDLYLVTRHADVIPVRRRGDSRGSLLSPRPVSYLKGSSGGPLLCPSGHAVGIFRTAVCTRGVAKAVDFVPVESMETTMRSHHHHHH
In the case of B2, in [5] (setting [7]), the Kcat is 0.2 s − 1 and the Michaelis constant (Km) turned out to be 1.3 µM.

B3: A156S (1b) (protein)
chain: APITAYSQQTRGLLGCIITSLTGRDRNQVEGEVQVVSTATQSFLATCVNGVCWTVYHGAGSKTLAGPKGPITQMYTNVDQDLVGWQAPPGARSLTPCTCGSSDLYLVTRHADVIPVRRRGDSRGSLLSPRPVSYLKGSSGGPLLCPSGHAVGIFRSAVCTRGVAKAVDFVPVESMETTMRSHHHHHH
Regarding B3, in [5] (setting [6]), the Kcat stood at 0.6 s⁻¹ and the Michaelis constant (Km) is 0.9 µM.

B4: A156V (protein)
chain: APITAYSQQTRGLLGCIITSLTGRDRNQVEGEVQVVSTATQSFLATCVNGVCWTVYHGAGSKTLAGPKGPITQMYTNVDQDLVGWQAPPGARSLTPCTCGSSDLYLVTRHADVIPVRRRGDSRGSLLSPRPVSYLKGSSGGPLLCPSGHAVGIFRVAVCTRGVAKAVDFVPVESMETTMRSHHHHHH
On to B4, for which, in series [5] (setting [7]), the Kcat amounted to 0.6 s − 1 and the Michaelis-Menten constant (Km) turned out to be 2.6 µM.

B5: Wt (1b): wild-type HCV NS3 serine protease domain, genotype 1b (Con1 strain) (protein)
chain: APITAYSQQTRGLLGCIITSLTGRDRNQVEGEVQVVSTATQSFLATCVNGVCWTVYHGAGSKTLAGPKGPITQMYTNVDQDLVGWQAPPGARSLTPCTCGSSDLYLVTRHADVIPVRRRGDSRGSLLSPRPVSYLKGSSGGPLLCPSGHAVGIFRAAVCTRGVAKAVDFVPVESMETTMRSHHHHHH
With B5, in series [5] (setting [6]), the Kcat worked out at 1.0 s⁻¹ and the Michaelis-Menten constant (Km) worked out at 1.1 µM. Besides, in series [5] (setting [7]), the Kcat is listed as 1.0 s − 1 and the Michaelis constant (Km) amounted to 1.1 µM.

B6: D168V (1b) (protein)
chain: APITAYSQQTRGLLGCIITSLTGRDRNQVEGEVQVVSTATQSFLATCVNGVCWTVYHGAGSKTLAGPKGPITQMYTNVDQDLVGWQAPPGARSLTPCTCGSSDLYLVTRHADVIPVRRRGDSRGSLLSPRPVSYLKGSSGGPLLCPSGHAVGIFRAAVCTRGVAKAVVFVPVESMETTMRSHHHHHH
With B6, in series [5] (setting [6]), the Kcat amounted to 0.6 s⁻¹ and the Km is 1.2 µM.

The IC50 is the concentration at which inhibition is half-maximal. A word on the Km: it is the substrate concentration at which the rate is half of its maximum.
